Assay results as given in US9822149B2, “Polypeptide having multiple directionality and self-assembled nanostructure containing the same” (INDUSTRY-ACADEMIC COOPERATION FOUNDATION, YONSEI UNIVERSITY, priority 2014, dated 2017).
Non-standard residues stand in square brackets, D forms with d. No end group written: not given here. ebes = not defined here

Key:
Format in all cases: physicochemical
[1] = Transmission electron microscopy (TEM) of negatively stained aggregate
Excerpt: The insert is an enlarged image.

[2] = Diffusion-ordered spectroscopy (DOSY) in solution
[3] = Small-angle X-ray scattering (SAXS) of polypeptide in solution
Description: The black circles represent experimental data and the red line represents X-ray scattering data of the most likely model obtained using DAMMIF.
As shown in FIG. 10 and FIG. 11, a form factor (P(q)) and an electron pair distance distribution function p(r) were obtained to investigate the shape and size of the polypeptide prepared in Example 2 (ODβ-S).
For the polypeptide prepared in Example 2 (ODβ-S), Rg,p(r) was calculated to be 11.01±0.078 Å and Dmax was calculated to be 34.0 Å.

Substance | aggregate morphology [1] | D (diffusion coefficient) [2] | hydrodynamic radius R(H) [2] | aggregation state [3] | Dmax ([3]; from p(r)) | Rg,p(r) ([3]; from p(r) using GNOM)
Comparative Example 2: comparative naturally directed β-α-β polypeptide WKWEWYWKWEW-GSGS-A(EAAAK)2A-GS-... (SEQ ID NOS 13 and 3) (chain 1 WKWEWYWKWEWGSGSAEAAAKEAAAKAGSK; chain 2 WEWKWYWEWKW; also: chain 2 joined at Lys30 side chain (εK branch)) | forms a heterogeneous structure and exists mainly as large-sized aggregates |  |  |  |  | 
Example 2: short polypeptide WKWEW-GSGS-(ebes)GS-εK- with oppositely directed WEWKW (SEQ ID NOS 9 and 10) (chain 1 WKWEWGSGS[ebes]GSK; numbers in words are those of the source; reading uncertain; also: K12 εK branch carrying oppositely directed WEWKW strand (chain 2), printed as WKWEW-GSGS-(ebes)GS-εK-) |  | 1.625×10^−10 m^2/s | 12.27 Å | exists as monomers rather than as aggregates | 34.0 Å | 11.01±0.078 Å
